Positions count from the first letter of the chain named.

For experiment [1], the target named is T1, biotinylated RBD of TcsL (Paeniclostridium sordellii, UniProt Q46342 1-2364). The experiment is described as follows: SPR. Conditions: both partners purified.
Experiment [2] addresses T1, biotinylated RBD of TcsL. The experiment is described as follows: SPR. Conditions: both partners purified. This is another data set of the same source.
Experiment [3] addresses full length TcdB (C. difficile, UniProt P18177 1-2366). The experiment is described as follows: SPR. Conditions: both partners purified.
Experiment [4] has as its target T1, biotinylated RBD of TcsL. Nature of the experiment: SPR. Conditions: both partners purified. The source holds these as a separate data set.
The target in experiment [5] is TcdB 1285-1804 with C-terminal Avitag (RBD toxin fragment) (C. difficile, UniProt P18177 1285-1804). Nature of the experiment: SPR. Conditions: both partners purified.
TcdB 1285-1804 with C-terminal Avitag (RBD toxin fragment), sequence (P18177 1285-1804): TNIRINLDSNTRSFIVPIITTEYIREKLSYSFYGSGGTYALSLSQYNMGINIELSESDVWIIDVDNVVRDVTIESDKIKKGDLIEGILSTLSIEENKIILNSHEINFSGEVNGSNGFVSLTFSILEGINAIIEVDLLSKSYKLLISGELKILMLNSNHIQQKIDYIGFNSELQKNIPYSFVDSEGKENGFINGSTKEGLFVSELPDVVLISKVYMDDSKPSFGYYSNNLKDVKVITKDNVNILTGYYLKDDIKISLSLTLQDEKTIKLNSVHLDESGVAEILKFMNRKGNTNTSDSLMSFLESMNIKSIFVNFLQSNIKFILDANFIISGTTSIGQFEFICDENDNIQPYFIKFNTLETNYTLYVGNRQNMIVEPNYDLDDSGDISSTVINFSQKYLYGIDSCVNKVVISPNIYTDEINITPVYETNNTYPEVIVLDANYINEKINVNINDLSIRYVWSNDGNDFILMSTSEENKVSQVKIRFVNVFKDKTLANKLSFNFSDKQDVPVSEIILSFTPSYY
In experiment [6] the target is TcdB2 (TcdB 027) (C. difficile). Nature of the experiment: cell-based or functional assay.

T1 sequence (Q46342 whole entry): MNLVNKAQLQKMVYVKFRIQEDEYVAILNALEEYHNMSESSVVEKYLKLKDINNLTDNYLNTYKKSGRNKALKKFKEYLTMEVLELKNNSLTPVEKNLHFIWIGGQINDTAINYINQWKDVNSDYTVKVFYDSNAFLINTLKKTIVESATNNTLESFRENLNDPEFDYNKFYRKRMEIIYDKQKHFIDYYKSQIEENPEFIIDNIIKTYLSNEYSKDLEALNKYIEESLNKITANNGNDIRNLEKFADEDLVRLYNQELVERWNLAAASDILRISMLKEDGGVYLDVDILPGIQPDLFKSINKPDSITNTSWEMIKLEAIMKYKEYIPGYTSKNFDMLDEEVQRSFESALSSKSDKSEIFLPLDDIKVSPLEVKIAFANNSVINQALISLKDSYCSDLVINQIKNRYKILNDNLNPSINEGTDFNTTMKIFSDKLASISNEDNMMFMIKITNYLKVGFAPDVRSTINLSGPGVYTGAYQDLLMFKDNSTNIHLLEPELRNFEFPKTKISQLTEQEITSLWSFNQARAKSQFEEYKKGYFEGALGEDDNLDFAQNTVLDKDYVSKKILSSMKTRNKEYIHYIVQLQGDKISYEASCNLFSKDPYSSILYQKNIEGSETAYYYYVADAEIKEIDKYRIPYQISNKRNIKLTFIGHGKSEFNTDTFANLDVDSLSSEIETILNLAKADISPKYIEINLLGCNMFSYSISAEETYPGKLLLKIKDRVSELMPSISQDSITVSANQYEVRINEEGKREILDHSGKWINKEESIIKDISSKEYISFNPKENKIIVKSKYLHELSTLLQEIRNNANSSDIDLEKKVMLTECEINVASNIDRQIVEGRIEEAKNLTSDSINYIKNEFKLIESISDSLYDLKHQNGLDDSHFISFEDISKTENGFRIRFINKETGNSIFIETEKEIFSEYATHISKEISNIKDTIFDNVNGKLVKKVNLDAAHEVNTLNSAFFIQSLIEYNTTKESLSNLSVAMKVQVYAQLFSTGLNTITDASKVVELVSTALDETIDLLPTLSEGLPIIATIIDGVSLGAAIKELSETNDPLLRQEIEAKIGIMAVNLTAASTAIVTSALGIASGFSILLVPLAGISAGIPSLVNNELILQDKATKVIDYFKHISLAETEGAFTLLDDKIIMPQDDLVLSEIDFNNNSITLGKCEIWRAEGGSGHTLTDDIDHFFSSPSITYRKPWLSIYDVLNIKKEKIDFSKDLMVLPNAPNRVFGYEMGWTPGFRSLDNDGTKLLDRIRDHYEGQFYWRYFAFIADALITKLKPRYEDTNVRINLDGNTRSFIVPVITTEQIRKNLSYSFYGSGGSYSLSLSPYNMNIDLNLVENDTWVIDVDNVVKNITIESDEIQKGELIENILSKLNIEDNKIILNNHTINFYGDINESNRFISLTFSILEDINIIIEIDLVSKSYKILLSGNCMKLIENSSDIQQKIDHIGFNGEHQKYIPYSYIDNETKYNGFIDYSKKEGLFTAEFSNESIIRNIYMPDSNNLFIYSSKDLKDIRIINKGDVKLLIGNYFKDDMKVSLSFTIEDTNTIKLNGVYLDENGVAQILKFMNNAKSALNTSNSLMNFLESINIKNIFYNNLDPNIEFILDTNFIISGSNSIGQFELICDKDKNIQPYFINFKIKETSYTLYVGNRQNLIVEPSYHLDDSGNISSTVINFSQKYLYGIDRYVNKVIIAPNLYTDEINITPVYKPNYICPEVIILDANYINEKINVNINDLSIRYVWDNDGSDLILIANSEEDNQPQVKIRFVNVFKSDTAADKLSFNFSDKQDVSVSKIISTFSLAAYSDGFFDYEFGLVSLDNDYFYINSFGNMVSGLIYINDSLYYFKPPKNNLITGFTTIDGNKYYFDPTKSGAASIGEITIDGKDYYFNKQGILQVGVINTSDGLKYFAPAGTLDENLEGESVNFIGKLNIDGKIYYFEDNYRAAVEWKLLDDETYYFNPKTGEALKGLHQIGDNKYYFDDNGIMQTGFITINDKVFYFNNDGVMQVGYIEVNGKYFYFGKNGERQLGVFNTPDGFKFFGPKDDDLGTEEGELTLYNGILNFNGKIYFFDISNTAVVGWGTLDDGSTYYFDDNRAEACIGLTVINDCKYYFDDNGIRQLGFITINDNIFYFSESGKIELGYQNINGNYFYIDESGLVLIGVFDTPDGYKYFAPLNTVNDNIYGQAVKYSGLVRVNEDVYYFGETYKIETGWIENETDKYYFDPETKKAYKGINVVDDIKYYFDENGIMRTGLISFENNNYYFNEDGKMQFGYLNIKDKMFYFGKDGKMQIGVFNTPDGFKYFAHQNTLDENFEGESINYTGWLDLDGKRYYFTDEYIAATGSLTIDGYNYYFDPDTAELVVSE

B1: F4 (designed binder)
chain: NEELIKEIKKLLKEGKPASEILELLKKAGKEEIAKEAEKAALSSYDMTKAAAEEAIKKLK
As a reminder, the Kd is a measure of binding affinity in units of concentration. Broadly, the koff is the rate constant with which the complex falls apart. Lower therefore signals a long-lived complex. As usually defined, the kon is the rate constant with which the complex forms. In the case of B1, in experiment [1], the Kd was determined as 4230 pM. Further, in experiment [2], binding was characterised by a dissociation constant (Kd) of 4280 pM, the koff amounted to 0.00928 s⁻¹ and the kon turned out to be 2.17e+06 M⁻¹ s⁻¹.

B2: B4 (designed binder)
chain: TEEIIKEIKKMKEKGEKASSIIDLLKKAGYSEIAKKAELAALKSENMTEAAAEKAIEELK
In experiment [2], B2 registered a dissociation constant Kd of 56.9 pM, a koff of 0.000112 s⁻¹ and a kon of 1.98e+06 M⁻¹ s⁻¹.

B3: ss2cspg18 (designed binder)
chain: MDEKVEKLKECLEKLKEKGDIKGVIDTERAIRICERSRHKEFCEWAIEKCENRIKES
notes: also called c18; dual disulfide version of cspg18
In experiment [3], B3 returned a Kd of 865 pM, a dissociation rate constant (koff) of 0.00164 s⁻¹ and a kon of 1.9e+06 M⁻¹ s⁻¹.

B4: ss2cspg27 (designed binder)
chain: B3 chain with K4L, I25T, R29K, K49A, N52A
notes: also called c27; dual disulfide version of cspg27
In experiment [3], B4 had a Kd of 507 pM, a koff of 0.000101 s⁻¹ and a kon of 199000 M⁻¹ s⁻¹.

B5: ss2cspg35 (designed binder)
chain: B3 chain with K4L, I21L, I25K, N52A
notes: also called dual disulfide version of cspg35
As to B5, in experiment [3], the Kd turned out to be 480 pM, the koff is 8.03e-05 s⁻¹ and the kon was 167000 M⁻¹ s⁻¹.

B6: B4-M79 (designed binder)
chain: TEEIIKEIKKMKEKGEKASSIIDLLKKAGYSEIAKKAELAALKSENMTEAAAEKAIEELKGSQVKLEESGGGLVQAGGSLKLSCAASGSTFSSSSVGWYRQAPGQQRELVAAITSGGSTNTADSVKGRFTMSRDNAKNTVYLQMRDLKPEDTAVYYCNVAGRNWVPISRYSPGPYWGQGTQVTVSS
On to B6, for which the equilibrium dissociation constant (Kd) in experiment [4] is 9.9 pM.

B7: cspg4 (designed binder)
chain: ENKLARAVVTVNKSWLATQLFVRLYRLCKAGDPRCEEVAEKLRKVLELQGVPETDIELVVEVAKG
With B7, in experiment [3], the Kd stood at 1980 pM, the koff turned out to be 0.0378 s⁻¹ and the kon was determined as 1.91e+07 M⁻¹ s⁻¹.

B8: fzd48 (designed binder)
chain: KEELEKMIEELKKLIENGDKENFIKLFDEAFKKAKESRDPRTIASVWTLVLEFKNKN
Regarding B8, in experiment [5], the Kd was found to be 0.00975 pM, the koff came out at 3.33e-07 s⁻¹ and the kon stood at 3.42e+07 M⁻¹ s⁻¹.

B9: cspg67 (designed binder)
chain: AEELAKKLEEMAEVFKEKGDEEGAKECLKAAKIVRRSKNEEFGKWCIKKAEERLKKL
As to B9, the “IC50 of neutralization of TcdB2 in WT Vero cells (CSPG4-dependent entry), Figure S7B; 8-step 3-fold dilution series starting at 40 nM; mean across 2 independent replicates” value in experiment [6] turned out to be 1000 pM. In experiment [3], this molecule returned a Kd of 1950 pM, a koff of 0.00387 s⁻¹ and a kon of 1.99e+06 M⁻¹ s⁻¹.

B10: fzd24 (designed binder)
chain: GEKSKLELLCKMLLTKAKLTGKQKYKNDLKELIEYLNEKGYPDLAKEASAKLEEI
In experiment [5], B10 displayed a Kd of 15.3 pM, a koff of 0.000649 s⁻¹ and a kon of 4.24e+07 M⁻¹ s⁻¹.

B11: fzd13 (designed binder)
chain: AEKEVQELIDKALNTPDPKVASKYIISAVYVAAKARDPSLFQSALDTAKKL
As for B11, in experiment [5], the Kd stood at 5.55 pM, the koff was 0.00014 s⁻¹ and the kon came to 2.53e+07 M⁻¹ s⁻¹.

For the origin of these results see paper PMC12501149 (Proceedings of the National Academy of Sciences of the …, 2025).
